Measured values: US20090221680, “Aptamers that bind thrombin with high affinity” (published 2009)

Tests used:
[1] = target: T1, thrombin (alpha-thrombin) (Homo sapiens, UniProt P00734;P00734 P00734:315-363,P00734:364-622); assay: filter
[2] = target: thrombin (endogenous, in vivo, ACT of whole blood) (Macaca fascicularis, UniProt A0A2K5UZ51;A0A2K5UZ51 A0A2K5UZ51:325-360,A0A2K5UZ51:361-619); assay: inhibition; maximum ACT in monkey, IV bolus 0.46 umol/kg
[3] = target: T1, thrombin (alpha-thrombin); assay: filter; NB, non binder
thrombin = thrombin (Sus scrofa, UniProt Q19AZ8;Q19AZ8 Q19AZ8:316-364,Q19AZ8:365-622); assay: filter; species cross-reactivity
[4] = target: T1, thrombin (alpha-thrombin); assay: filter; DPBS Ca Mg, BSA, RT
[5] = target: T1, thrombin (alpha-thrombin); assay: filter; DPBS Ca2+ Mg2+, 0.1 mg/ml BSA, room temp

| Binder | Kd [1] | activity [2] | binding result [3] | further results |
| --- | --- | --- | --- | --- |
| ACTGCCTAGGTTGGGTAGGGTGGTGGCAGT (ssDNA) [ARC2169] | 0.135 nM | 542 s | – | – |
| ACTGCCTAGGTTGGGTAGGGUGGTGGCAGT (XNA, 2'-OMe U21, rest DNA) [ARC2633] | – | – | no binding | – |
| CGCCTAGGTTGGGTAGGGTGGTGGCG (ssDNA) [ARC2172] | 0.14 nM | 527 s | – | binding result (thrombin): binds |
| ACTGCCTAGGTTGGGTAGGGTGGTGGCAGT (ssDNA, PS linkage between nt 1 and 2) [ARC2644] | – | – | – | Kd [4]: 0.183 nM |
| ACTGCCTAGGTUGGGTAGGGTGGTGGCAGT (XNA, 2'-OMe U12, rest DNA) [ARC2624] | – | – | no binding | – |
| TCCCTGCAATTCGATCAGCAGGGGTGGTGTGGGTGGCTGAGGATCGATC (ssDNA) [AMX(395)_A1] | – | – | – | Kd [5]: 6.4 nM |
